The source of these data is patent publication US20140105889A1 (published 2014).

What all share (test): SPR (Biacore), FcγR over captured antibody; binding amount / that of IL6R-BF648/IL6R-L x100
On the technique in general: Surface plasmon resonance follows binding to a sensor surface in real time, without labels.

Experiment [1] deals with T1, human FcγRIa (human, UniProt P12314 16-292, limits assumed).
T1 construct: also called FcgRIa; CD64

In experiment [2] the target is T2, human FcγRIIa type R (human, UniProt P12318 36-217).
T2 construct: also called FcgRIIaR; FcγRIIa(R)
T2 chain: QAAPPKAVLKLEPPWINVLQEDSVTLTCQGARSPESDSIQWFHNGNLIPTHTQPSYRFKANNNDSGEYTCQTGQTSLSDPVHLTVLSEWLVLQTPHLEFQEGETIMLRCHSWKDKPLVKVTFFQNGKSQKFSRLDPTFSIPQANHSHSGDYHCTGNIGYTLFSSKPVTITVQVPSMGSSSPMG

Experiment [3] concerns the target T3, human FcγRIIa type H (human, UniProt P12318 36-217).
T3 construct: also called FcgRIIaH; FcγRIIa(H)
T3 sequence: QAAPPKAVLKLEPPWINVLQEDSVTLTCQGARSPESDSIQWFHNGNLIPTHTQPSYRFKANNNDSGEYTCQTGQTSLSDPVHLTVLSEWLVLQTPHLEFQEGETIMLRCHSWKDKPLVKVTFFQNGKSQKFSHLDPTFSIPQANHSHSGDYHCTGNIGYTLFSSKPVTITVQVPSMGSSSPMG

Experiment [4] concerns the target T4, human FcγRIIb (human, UniProt P31994 43-217).
T4 construct: also called FcgRIIb; FcγIIB
T4 sequence: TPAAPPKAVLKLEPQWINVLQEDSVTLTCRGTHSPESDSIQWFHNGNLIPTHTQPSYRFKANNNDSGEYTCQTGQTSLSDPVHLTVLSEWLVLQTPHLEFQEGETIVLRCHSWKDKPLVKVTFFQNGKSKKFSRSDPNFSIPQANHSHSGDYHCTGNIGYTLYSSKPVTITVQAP

For experiment [5], the target named is T5, human FcγRIIIa type V (human, UniProt P08637 17-208, limits assumed).
T5 construct: Allotype V158 was used; also called FcgRIIIaV; FcγRIIIa(V)
T5 sequence (P08637 other isoform, or with tags, fused parts or gaps limits assumed): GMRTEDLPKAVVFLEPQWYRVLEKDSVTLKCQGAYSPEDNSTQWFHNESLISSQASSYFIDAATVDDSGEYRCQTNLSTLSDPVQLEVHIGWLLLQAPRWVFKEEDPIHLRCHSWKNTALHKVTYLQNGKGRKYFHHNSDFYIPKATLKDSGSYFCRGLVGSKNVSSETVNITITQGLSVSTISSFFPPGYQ

T1 sequence (P12314 16-292 limits assumed): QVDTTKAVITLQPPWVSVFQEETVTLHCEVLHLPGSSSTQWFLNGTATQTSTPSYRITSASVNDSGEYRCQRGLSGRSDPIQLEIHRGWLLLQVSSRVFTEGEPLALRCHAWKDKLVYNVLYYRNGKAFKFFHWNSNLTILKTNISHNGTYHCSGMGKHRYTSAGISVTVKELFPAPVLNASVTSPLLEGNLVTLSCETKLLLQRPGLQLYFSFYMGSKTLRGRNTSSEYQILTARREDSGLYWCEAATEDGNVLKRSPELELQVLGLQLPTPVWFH

B1: IL6R-2B253/IL6R-L (antibody, human IgG1)
heavy: QVQLQESGPGLVKPSETLSLTCAVSGHSISHDHAWSWVRQPPGEGLEWIGFISYSGITNYNPSLQGRVTISRDNSKNTLYLQMNSLRAEDTAVYYCARSLARTTAMDYWGEGTLVTVSSASTKGPSVFPLAPSSKSTSGGTAALGCLVKDYFPEPVTVSWNSGALTSGVHTFPAVLQSSGLYSLSSVVTVPSSSLGTQTYICNVNHKPSNTKVDKKVEPKSCDKTHTCPPCPAPDLLGGDSVFLFPPKPKDTLMISRTPEVTCVVVDVSHEDPEVKFNWYVDGVEVHNAKTKPREEQYNSTYRVVSVLTVLHQDWLNGKEYKCKMSNKALPAPIEKTISKAKGQPREPQVYTLPPSRDELTKNQVSLTCLVKGFYPSDIAVEWESNGQPENNYKTTPPVLDSDGSFFLYSKLTVDKSRWQQGNVFSCSVMHEALHNHYTQESLSLSP
light: DIQMTQSPSSLSASVGDRVTITCRASQDISSYLNWYQQKPGKAPKLLIYYTSRLHSGVPSRFSGSGSGTDFTFTISSLQPEDIATYYCQQGNTLPYTFGQGTKVEIK
With B1, the relative binding activity in experiment [1] is 155 % of IL6R-BF648/IL6R-L; in experiment [2] it was 288 % of IL6R-BF648/IL6R-L; in experiment [3], 207 % of IL6R-BF648/IL6R-L; in experiment [4], 156 % of IL6R-BF648/IL6R-L; in experiment [5] it was 126 % of IL6R-BF648/IL6R-L.

B2: IL6R-2B261/IL6R-L (antibody, human IgG1)
heavy: QVQLQESGPGLVKPSETLSLTCAVSGHSISHDHAWSWVRQPPGEGLEWIGFISYSGITNYNPSLQGRVTISRDNSKNTLYLQMNSLRAEDTAVYYCARSLARTTAMDYWGEGTLVTVSSASTKGPSVFPLAPSSKSTSGGTAALGCLVKDYFPEPVTVSWNSGALTSGVHTFPAVLQSSGLYSLSSVVTVPSSSLGTQTYICNVNHKPSNTKVDKKVEPKSCDKTHTCPPCPAPDLLGGDSVFLFPPKPKDTLMISRTPEVTCVVVDVSHEDPEVKFNWYVDGVEVHNAKTKPREEQDNSTYRVVSVLTVLHQDWLNGKEYKCKVSNKALPAPIEKTISKAKGQPREPQVYTLPPSRDELTKNQVSLTCLVKGFYPSDIAVEWESNGQPENNYKTTPPVLDSDGSFFLYSKLTVDKSRWQQGNVFSCSVMHEALHNHYTQESLSLSP
light: DIQMTQSPSSLSASVGDRVTITCRASQDISSYLNWYQQKPGKAPKLLIYYTSRLHSGVPSRFSGSGSGTDFTFTISSLQPEDIATYYCQQGNTLPYTFGQGTKVEIK
With B2, the relative binding activity in experiment [1] was 100 % of IL6R-BF648/IL6R-L; in experiment [2], 94 % of IL6R-BF648/IL6R-L; in experiment [3], 91 % of IL6R-BF648/IL6R-L; in experiment [4], 115 % of IL6R-BF648/IL6R-L; in experiment [5], 87 % of IL6R-BF648/IL6R-L.

B3: IL6R-BF648/IL6R-L (antibody, human IgG1)
heavy: not shown
light: DIQMTQSPSSLSASVGDRVTITCRASQDISSYLNWYQQKPGKAPKLLIYYTSRLHSGVPSRFSGSGSGTDFTFTISSLQPEDIATYYCQQGNTLPYTFGQGTKVEIK
For B3, the relative binding activity in experiment [1], in experiment [2], in experiment [3], in experiment [4] and in experiment [5] was 100 % of IL6R-BF648/IL6R-L in each case.

B4: IL6R-BP084/IL6R-L (antibody, human IgG1)
heavy: QVQLQESGPGLVKPSETLSLTCAVSGHSISHDHAWSWVRQPPGEGLEWIGFISYSGITNYNPSLQGRVTISRDNSKNTLYLQMNSLRAEDTAVYYCARSLARTTAMDYWGEGTLVTVSSASTKGPSVFPLAPSSKSTSGGTAALGCLVKDYFPEPVTVSWNSGALTSGVHTFPAVLQSSGLYSLSSVVTVPSSSLGTQTYICNVNHKPSNTKVDKKVEPKSCDKTHTCPPCPAPELLGGDSVFLFPPKPKDTLMISRTPEVTCVVVDVSHEDPEVKFNWYVDGVEVHNAKTKPREEQYNSTYRVVSVLTVLHQDWLNGKEYKCKMSNKALPKPIEKTISKAKGQPREPQVYTLPPSRDELTKNQVSLTCLVKGFYPSDIAVEWESNGQPENNYKTTPPVLDSDGSFFLYSKLTVDKSRWQQGNVFSCSVMHEALHNHYTQESLSLSP
light: DIQMTQSPSSLSASVGDRVTITCRASQDISSYLNWYQQKPGKAPKLLIYYTSRLHSGVPSRFSGSGSGTDFTFTISSLQPEDIATYYCQQGNTLPYTFGQGTKVEIK
With B4, the relative binding activity was 109 % of IL6R-BF648/IL6R-L in experiment [1]; 203 % of IL6R-BF648/IL6R-L in experiment [2]; 162 % of IL6R-BF648/IL6R-L in experiment [3]; 141 % of IL6R-BF648/IL6R-L in experiment [4]; 106 % of IL6R-BF648/IL6R-L in experiment [5].

B5: IL6R-BP083/IL6R-L (antibody, human IgG1)
heavy: QVQLQESGPGLVKPSETLSLTCAVSGHSISHDHAWSWVRQPPGEGLEWIGFISYSGITNYNPSLQGRVTISRDNSKNTLYLQMNSLRAEDTAVYYCARSLARTTAMDYWGEGTLVTVSSASTKGPSVFPLAPSSKSTSGGTAALGCLVKDYFPEPVTVSWNSGALTSGVHTFPAVLQSSGLYSLSSVVTVPSSSLGTQTYICNVNHKPSNTKVDKKVEPKSCDKTHTCPPCPAPELLGGDSVFLFPPKPKDTLMISRTPEVTCVVVDVSHEDPEVKFNWYVDGVEVHNAKTKPREEQDNSTYRVVSVLTVLHQDWLNGKEYKCKVSNKALPKPIEKTISKAKGQPREPQVYTLPPSRDELTKNQVSLTCLVKGFYPSDIAVEWESNGQPENNYKTTPPVLDSDGSFFLYSKLTVDKSRWQQGNVFSCSVMHEALHNHYTQESLSLSP
light: DIQMTQSPSSLSASVGDRVTITCRASQDISSYLNWYQQKPGKAPKLLIYYTSRLHSGVPSRFSGSGSGTDFTFTISSLQPEDIATYYCQQGNTLPYTFGQGTKVEIK
notes: The variants were built on IL6R-BF648 (P238D), so it is read as P238D
On to B5, for which the relative binding activity in experiment [1] was 50 % of IL6R-BF648/IL6R-L; in experiment [2] it was 87 % of IL6R-BF648/IL6R-L; in experiment [3], 91 % of IL6R-BF648/IL6R-L; in experiment [4] it was 122 % of IL6R-BF648/IL6R-L; in experiment [5], 107 % of IL6R-BF648/IL6R-L.

B6: IL6R-BP085/IL6R-L (antibody, human IgG1)
heavy: QVQLQESGPGLVKPSETLSLTCAVSGHSISHDHAWSWVRQPPGEGLEWIGFISYSGITNYNPSLQGRVTISRDNSKNTLYLQMNSLRAEDTAVYYCARSLARTTAMDYWGEGTLVTVSSASTKGPSVFPLAPSSKSTSGGTAALGCLVKDYFPEPVTVSWNSGALTSGVHTFPAVLQSSGLYSLSSVVTVPSSSLGTQTYICNVNHKPSNTKVDKKVEPKSCDKTHTCPPCPAPELLGDDSVFLFPPKPKDTLMISRTPEVTCVVVDVSHEDPEVKFNWYVDGVEVHNAKTKPREEQYNSTYRVVSVLTVLHQDWLNGKEYKCKVSNKALPKPIEKTISKAKGQPREPQVYTLPPSRDELTKNQVSLTCLVKGFYPSDIAVEWESNGQPENNYKTTPPVLDSDGSFFLYSKLTVDKSRWQQGNVFSCSVMHEALHNHYTQESLSLSP
light: DIQMTQSPSSLSASVGDRVTITCRASQDISSYLNWYQQKPGKAPKLLIYYTSRLHSGVPSRFSGSGSGTDFTFTISSLQPEDIATYYCQQGNTLPYTFGQGTKVEIK
Turning to B6, the relative binding activity was 19 % of IL6R-BF648/IL6R-L in experiment [1]; 279 % of IL6R-BF648/IL6R-L in experiment [2]; 158 % of IL6R-BF648/IL6R-L in experiment [3]; 152 % of IL6R-BF648/IL6R-L in experiment [4]; 104 % of IL6R-BF648/IL6R-L in experiment [5].

B7: IL6R-B3/IL6R-L (antibody, human IgG1)
heavy: not shown
light: DIQMTQSPSSLSASVGDRVTITCRASQDISSYLNWYQQKPGKAPKLLIYYTSRLHSGVPSRFSGSGSGTDFTFTISSLQPEDIATYYCQQGNTLPYTFGQGTKVEIK
notes: Parent polypeptide
With B7, the relative binding activity is 145 % of IL6R-BF648/IL6R-L in experiment [1]; 625 % of IL6R-BF648/IL6R-L in experiment [2]; 1600 % of IL6R-BF648/IL6R-L in experiment [3]; 58 % of IL6R-BF648/IL6R-L in experiment [4]; 3260 % of IL6R-BF648/IL6R-L in experiment [5].
